The supplement of paper PMC12667976
± gives the standard error.

B1: library; numbered along this chain (parent)
chain: MATDAALRRLLRLHRTEIAVAVDSAFPLLHALADHDVVPEDKFQETLHLKEKEGCPQAFHALLSWLLTQDSTAILDFWRVLFKDYNLERYGRLQPILDSFPKDVDLSQPRKGRKPPAVPKALVPPPRLPTKRKASEEARAAAPAALTPRGTASPGSQLKAKPPKKPESSAEQQRLPLGNGIQTMSASVQRAVAMSSGDVPGARGAVEGILIQQVFESGGSKKCIQVGGEFYTPSKFEDSGSGKNKARSSSGPKPLVRAKGAQGAAPGGGEARLGQQGSVPAPLALPSDPQLHQKNEDECAVCRDGGELICCDGCPRAFHLACLSPPLREIPSGTWRCSSCLQATVQEVQPRAEEPRPQEPPVETPLPPGLRSAGEEVRGPPGEPLAGMDTTLVYKHLPAPPSAAPLPGLDSSALHPLLCVGPEGQQNLAPGARCGVCGDGTDVLRCTHCAAAFHWRCHFPAGTSRPGTGLRCRSCSGDVTPAPVEGVLAPSPARLAPGPAKDDTASHEPALHRDDLESLLSEHTFDGILQWAIQSMARPAAPFPS

Variants of: B1
Test: AIRE transcriptional activation functional score (insulin promoter-GFP; nonsense median 0, synonymous median 1) (normalised score); higher = higher AIRE activity (more reporter activation)
Settings: with insulin promoter-GFP reporter in HEK293
Experimental: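 Deep mutational scan of full-length human AIRE (codon-optimized cDNA, DT-POPCode NNN libraries over three regions) integrated at a Bxb1 landing pad in HEK293 cells carrying an insulin core promoter-GFP reporter at a Flp-In site. Cells were sorted for the top 10% GFP about 14 days after transfection. Variant frequency log-ratios (select vs non-select, TileSeq) were rescaled so that the nonsense median is 0 and the synonymous median is 1, then averaged over biological replicates.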

| Variant | AIRE transcriptional activation functional score |
| --- | --- |
| R538S | 0.733 ± 0.23 |
| R538I | 1.65 ± 0.075 |
| S241G | 0.897 ± 0.38 |
| R8G | -0.0812 ± 0.54 |
| R8A | -0.421 ± 0.42 |
| G267E | 1.87 ± 0.092 |
| V479A | 0.734 ± 0.36 |
| V479M | 1.1 ± 0.13 |
| A321P | 1.3 ± 0.24 |
| G462L | 0.83 ± 0.49 |
| D4F | 0.414 ± 0.23 |
| V188Y | 1.56 ± 0.16 |
| V188S | 0.447 ± 0.28 |
| N244M | -0.168 ± 0.073 |
| A2S | 1.27 ± 0.12 |
| D98M | 1.55 ± 0.044 |
| D98I | 0.501 ± 0.42 |
| A540D | 0.625 ± 0.45 |
| L29S | -0.0413 ± 0.26 |
| L29T | -0.208 ± 0.21 |
| Q69V | -0.0416 ± 0.26 |
| D70M | -0.516 ± 0.19 |
| P325H | 0.387 ± 0.14 |
| P544C | 0.924 ± 0.031 |

| Variant | AIRE transcriptional activation functional score |
| --- | --- |
| T183E | 0.451 ± 0.27 |
| H48C | 0.651 ± 0.54 |
| A31H | -0.698 ± 0.13 |
| P361Y | 1.13 ± 0.14 |
| G379L | 1.41 ± 0.33 |
| K50D | 1.78 ± 0.2 |
| K50R | 0.745 ± 0.42 |
| D526T | -0.207 ± 0.066 |
| D526W | -0.427 ± 0.46 |
| D526G | 0.346 ± 0.28 |
| R471D | 0.476 ± 0.075 |
| L122T | 0.686 ± 0.11 |
| R89S | 1.8 ± 0.34 |
| A191G | 0.958 ± 0.38 |
| M388S | 0.824 ± 0.24 |
| K114D | 0.131 ± 0.23 |
| G251I | 1.2 ± 0.27 |
| G251C | 0.932 ± 0.18 |
| L10E | -0.413 ± 0.3 |
| L10Q | -0.766 ± 0.54 |
| V199E | 0.905 ± 0.22 |
| F82N | -4.23 ± 0.85 |
| S249T | 0.256 ± 0.25 |
| D288K | 0.535 ± 0.27 |

| Variant | AIRE transcriptional activation functional score |
| --- | --- |
| T524R | 0.214 ± 0.12 |
| S248T | 0.975 ± 0.46 |
| L444M | -0.874 ± 0.42 |
| L444S | 1.09 ± 0.34 |
| A489C | 1.19 ± 0.1 |
| A489E | 0.655 ± 0.041 |
| K102A | -0.872 ± 0.13 |
| E353D | 0.963 ± 0.19 |
| E353Q | 1.18 ± 0.16 |
| L519P | 0.517 ± 0.14 |
| E17K | 0.389 ± 0.19 |
| E17L | 0.113 ± 0.36 |
| F525A | 0.406 ± 0.24 |
| F525P | 0.141 ± 0.13 |
| S464M | -0.078 ± 0.07 |
| R371L | 1.5 ± 0.095 |
| D238K | 0.355 ± 0.12 |
| G218W | -0.332 ± 0.1 |
| G218N | 0.111 ± 0.11 |
| G218Q | -0.344 ± 0.048 |
| G228V | 0.421 ± 0.28 |
| P401Y | 1.14 ± 0.42 |
| E167P | 0.414 ± 0.29 |
| E167Q | 0.862 ± 0.17 |

| Variant | AIRE transcriptional activation functional score |
| --- | --- |
| F215L | 0.751 ± 0.17 |
| F215W | 0.878 ± 0.036 |
| A537L | 0.0269 ± 0.21 |
| D105Q | -0.785 ± 0.28 |
| D105F | 0.419 ± 0.4 |
| S168P | -0.113 ± 0.67 |
| L106K | 0.511 ± 0.29 |
| L366D | 0.846 ± 0.22 |
| L366W | 1.29 ± 0.11 |
| P398G | 1.14 ± 0.24 |
| H454V | 0.0829 ± 0.3 |
| W78M | 0.308 ± 0.063 |
| A170G | 0.778 ± 0.51 |
| S491W | 1.03 ± 0.1 |
| D502L | 0.916 ± 0.31 |
| P331A | 1.19 ± 0.23 |
| L418R | 0.67 ± 0.17 |
| L418Y | 1.42 ± 0.047 |
| T72Y | 0.224 ± 0.76 |
| L28S | -0.39 ± 0.52 |
| E216L | 1.42 ± 0.084 |
| R12Y | -0.191 ± 0.23 |
| G260C | 1.01 ± 0.12 |
| L417A | 0.892 ± 0.26 |

| Variant | AIRE transcriptional activation functional score |
| --- | --- |
| A33W | 0.679 ± 0.29 |
| A33C | 0.846 ± 0.16 |
| P367S | 1.13 ± 0.32 |
| A142I | 0.926 ± 0.27 |
| A142V | 1.27 ± 0.21 |
| S338V | 0.911 ± 0.12 |
| S338L | 1.01 ± 0.18 |
| A144M | 0.931 ± 0.064 |
| A144Y | 1.48 ± 0.23 |
| E207T | 0.3 ± 0.44 |
| L291P | 1.26 ± 0.12 |
| A482G | 1.31 ± 0.59 |
| Q213A | 0.437 ± 0.074 |
| V279W | 1.4 ± 0.13 |
| V279Q | -0.249 ± 0.29 |
| V279S | 1.24 ± 0.4 |
| V279A | 1.45 ± 0.19 |
| V279K | 0.637 ± 0.24 |
| T391C | 0.542 ± 0.084 |
| R257D | 1.16 ± 0.094 |
| R257T | 0.86 ± 0.26 |
| L414S | 0.625 ± 0.42 |
| F543E | 0.561 ± 0.2 |
| F543M | 0.745 ± 0.12 |

| Variant | AIRE transcriptional activation functional score |
| --- | --- |
| N427P | 1.18 ± 0.55 |
| N427W | 1.3 ± 0.051 |
| L177P | 0.397 ± 0.62 |
| L177W | 2.38 ± 0.031 |
| A413N | 0.373 ± 0.085 |
| A413D | 0.666 ± 0.15 |
| A404F | 1.26 ± 0.26 |
| A404Y | 1.3 ± 0.057 |
| G219N | 0.637 ± 0.082 |
| T46A | 0.0907 ± 0.95 |
| L488E | 0.182 ± 0.21 |
| P176T | 0.957 ± 0.38 |
| T364F | 0.115 ± 0.34 |
| G178R | 1.49 ± 0.85 |
| G178I | 1.74 ± 0.37 |
| G178L | 1.58 ± 0.25 |
| Q44W | 0.23 ± 0.49 |
| Q44V | 0.735 ± 0.82 |
| G527A | 0.391 ± 0.21 |
| A202T | 0.777 ± 0.24 |
| E508P | 0.813 ± 0.033 |
| F230V | 0.617 ± 0.11 |
| F230L | 0.774 ± 0.16 |
| I96V | 1.14 ± 0.26 |

| Variant | AIRE transcriptional activation functional score |
| --- | --- |
| V226P | 1.09 ± 0.3 |
| G268V | 1.02 ± 0.21 |
| G268C | 1.21 ± 0.14 |
| P200C | 1.43 ± 0.034 |
| P200N | 1.12 ± 0.082 |
| P200R | 0.99 ± 0.34 |
| R513G | -0.188 ± 0.48 |
| A186Q | 0.6 ± 0.13 |
| K259N | 1.03 ± 0.069 |
| S287D | 0.579 ± 0.25 |
| A451G | 0.686 ± 0.21 |
| A451Y | 0.593 ± 0.28 |
| S411Q | 0.0682 ± 0.27 |
| Q94V | 1.42 ± 0.51 |
| C311F | 0.878 ± 0.1 |
| C311H | 1.01 ± 0.45 |
| C311W | 0.678 ± 0.023 |
| C311N | 1.47 ± 0.17 |
| P163W | 2.35 ± 0.1 |
| Y90M | 0.613 ± 0.15 |
| Y90I | -0.0337 ± 0.25 |
| G201H | 1.02 ± 0.23 |
| Q275H | 1.01 ± 0.13 |
